Target: 3nv.2 SOSIP Env trimer (HIV-1 (clade C strain 426c))
Assay: cryo-EM structure; single-particle cryo-EM of unliganded 3nv.2 SOSIP Env, from a sample incubated with polyclonal Fabs and purified by SEC in TBS; 2D class averages and 3D map, C1 or C3 symmetry

Substance: 3nv.2 SOSIP Env trimer
- stoichiometry N: 3

— PMC12341506
